Experimental data taken from patent US20250388664A1 (BIOARCTIC, published 2025).
Where two headings read alike, the source gives them in different places. Values belong to the binder of their own block, whether it stands above or below them.

Legend:
AβpE3-40 monomer [1] = molecular target: T1, AβpE3-40 monomer (UniProt P05067 674-711, pyroglutamate at position 3 (N-terminal residue)); test: SPR, antibody immobilised, monomer injected, 1:1 fit
T1 construct: range 3-40 (Aβ numbering); Synthetic peptide (Bachem/Anaspec), verified monomeric by SEC; also called monomeric AβpE3-40
T1 sequence (P05067 674-711): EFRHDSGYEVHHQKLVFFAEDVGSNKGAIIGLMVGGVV
Description: Single cycle kinetics with the binding molecules immobilized on a CM5 chip was used to measure binding to the AβpE3-40 monomer. For the measurements, 5 μg/ml of analyte binding molecule was immobilized on the chip. […] Regeneration of the surface between cycles was done by injecting 30 μl 3 M MgCl₂ (Cytiva, cat. No. 29234600). The binding data was fitted to a 1:1 interaction model.

[2] = molecular target: T2, truncated hTfR1 of SEQ ID NO:122 (human, UniProt P02786 122-760); test: SPR, FLAG-captured TfR1, bispecific injected, 1:1 fit
T2 construct: also called human TfR1; Human TfR1
T2 sequence (P02786 other isoform, or with tags, fused parts or gaps limits assumed): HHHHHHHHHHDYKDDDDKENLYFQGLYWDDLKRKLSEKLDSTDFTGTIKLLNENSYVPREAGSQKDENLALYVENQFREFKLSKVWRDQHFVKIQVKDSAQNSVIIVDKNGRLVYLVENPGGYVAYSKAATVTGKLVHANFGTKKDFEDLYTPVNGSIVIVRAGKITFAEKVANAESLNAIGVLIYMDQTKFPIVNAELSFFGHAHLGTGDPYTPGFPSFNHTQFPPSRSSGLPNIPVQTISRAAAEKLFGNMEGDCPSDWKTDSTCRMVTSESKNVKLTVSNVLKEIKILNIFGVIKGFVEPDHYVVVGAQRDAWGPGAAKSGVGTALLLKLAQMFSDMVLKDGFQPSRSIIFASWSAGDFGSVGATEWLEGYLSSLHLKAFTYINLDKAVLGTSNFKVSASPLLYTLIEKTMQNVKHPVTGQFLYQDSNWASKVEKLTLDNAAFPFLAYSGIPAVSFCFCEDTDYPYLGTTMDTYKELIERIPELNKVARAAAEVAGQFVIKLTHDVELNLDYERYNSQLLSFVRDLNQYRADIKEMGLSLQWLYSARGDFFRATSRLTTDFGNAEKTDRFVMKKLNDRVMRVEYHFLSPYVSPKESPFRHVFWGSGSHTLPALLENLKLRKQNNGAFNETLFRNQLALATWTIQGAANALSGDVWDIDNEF

AβpE3-40 monomer [3] = molecular target: T1, AβpE3-40 monomer; test: inhibition ELISA, antigen titrated in solution, AβpE3-40 coat
Description: (§1) The tested molecules were incubated at a fixed concentration (0.1 μg/ml) with titrating concentrations of the different AβpE3 antigens. After incubation for 45 min at 900 rpm to reach equilibrium, the samples were added to a blocked and washed ELISA plate with an AβpE3-40 coat (0.5 μM). The samples were incubated on the plate for 25 min without shaking followed by washing, incubation with detection antibody, another washing step and finally incubation with alkaline phosphatase substrate.

AβpE3-42 protofibrils [4] = molecular target: T3, AβpE3-42 protofibrils (UniProt P05067 674-713, pyroglutamate at position 3 (N-terminal residue)); test: as above
T3 construct: range 3-42 (Aβ numbering); Soluble aggregates made from AβpE3-42 peptide, purified in the void peak of SEC; also called AβpE3-42 PF
T3 sequence (P05067 674-713): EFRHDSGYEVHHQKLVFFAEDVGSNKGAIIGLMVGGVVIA
Description: as §1

AβpE3-40 monomer [5] = molecular target: T1, AβpE3-40 monomer; test: SPR, antibody immobilised, monomer injected, 1:1 fit; remark: listed apart in the source
Description: Single cycle kinetics with the antibodies immobilized on a CM5 chip was used to measure the binding of the antibodies to the AβpE3-40 monomer. For the measurements, 5 μg/ml of analyte antibody was immobilized on the chip. […] Regeneration of the surface between cycles was done by injecting 30 μl 3 M MgCl₂. The binding data was fitted to a 1:1 interaction model.
(§2) In all SPR experiments, 1×HBS-EP+ (Cytiva, cat. no. BR100669) was used to dilute antibodies and target antigens. Experiments were performed at 25° C.
(§3) Affinity evaluation and KD determination by surface plasmon resonance: Binding interactions between antigens and antibodies were evaluated by SPR using a Biacore 8K instrument (Cytiva) according to standard procedures.

AβpE3-40 monomer [6] = molecular target: T1, AβpE3-40 monomer; test: inhibition ELISA, antigen titrated in solution, AβpE3-40 coat; remark: listed apart in the source
Aβ1-40 monomer = molecular target: T4, Aβ1-40 monomer (UniProt P05067 672-711); test: as above
T4 construct: range 1-40 (Aβ numbering)
T4 sequence (P05067 672-711): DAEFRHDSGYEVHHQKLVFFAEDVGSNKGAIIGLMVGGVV

AβpE3-42 protofibrils [7] = molecular target: T3, AβpE3-42 protofibrils; test: as above; remark: listed apart in the source
Aβ1-42 protofibrils = molecular target: T5, Aβ1-42 protofibrils (UniProt P05067 672-713); test: as above
T5 construct: range 1-42 (Aβ numbering); Soluble aggregates made from Aβ1-42 monomer
T5 sequence (P05067 672-713): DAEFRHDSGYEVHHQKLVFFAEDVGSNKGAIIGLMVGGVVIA

AβpE3-42 protofibrils [8] = molecular target: T3, AβpE3-42 protofibrils; test: SPR, protofibrils immobilised, antibody injected, 1:1 fit, apparent
Description: (§4) Single cycle kinetics was also used to measure binding of the antibodies to AβpE3-42 protofibrils. […] Regeneration of the surface between cycles was done by injecting 30 μl 10 mM glycine-HCl pH 1.7. The binding data was fitted to a 1:1 interaction model.
as §2, §3

AβpE3-42 protofibrils [9] = molecular target: T3, AβpE3-42 protofibrils; test: SPR, protofibrils immobilised, antibody injected, 1:1 fit, apparent; binding to AβpE3-42 protofibrils; KD in pM
Description: as §4, §2, §3

Aβ3-28 monomer = molecular target: T6, Aβ3-28 monomer (UniProt P05067 674-699); test: inhibition ELISA, antigen titrated in solution, AβpE3-40 coat
T6 construct: range 3-28 (Aβ numbering)
T6 sequence (P05067 674-699): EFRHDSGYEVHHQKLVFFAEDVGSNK
Description: (§5) The humanized antibodies were incubated at a fixed concentration (0.5 μg/ml) with titrating concentrations of the different Aβ antigens. After incubation for 45 min at 900 rpm to reach equilibrium, the antibody-Aβ samples were added to a blocked and washed ELISA plate with an AβpE3-40 coat (0.5 μM). The samples were incubated on the plate for 25 min without shaking followed by washing, incubation with detection antibody, another washing step and finally incubation with alkaline phosphatase substrate.

AβpE3-28 monomer = molecular target: T7, AβpE3-28 monomer (UniProt P05067 674-699, pyroglutamate at position 3 (N-terminal residue)); test: as above
T7 construct: range 3-28 (Aβ numbering)
Description: as §5

[10] = molecular target: T8, h/m apical domain chimera (SEQ ID NO:112) (human/mouse chimera); test: indirect ELISA: plate coated with 1 µg/ml h/m apical domain chimera, mouse IgG titrated, anti-mouse IgG-HRP; x axis printed as 'TfR (ng/ml)'
T8 construct: also called chimeric TfR1 consisting of human apical domain grafted on mouse TfR1 ectodomain
T8 chain: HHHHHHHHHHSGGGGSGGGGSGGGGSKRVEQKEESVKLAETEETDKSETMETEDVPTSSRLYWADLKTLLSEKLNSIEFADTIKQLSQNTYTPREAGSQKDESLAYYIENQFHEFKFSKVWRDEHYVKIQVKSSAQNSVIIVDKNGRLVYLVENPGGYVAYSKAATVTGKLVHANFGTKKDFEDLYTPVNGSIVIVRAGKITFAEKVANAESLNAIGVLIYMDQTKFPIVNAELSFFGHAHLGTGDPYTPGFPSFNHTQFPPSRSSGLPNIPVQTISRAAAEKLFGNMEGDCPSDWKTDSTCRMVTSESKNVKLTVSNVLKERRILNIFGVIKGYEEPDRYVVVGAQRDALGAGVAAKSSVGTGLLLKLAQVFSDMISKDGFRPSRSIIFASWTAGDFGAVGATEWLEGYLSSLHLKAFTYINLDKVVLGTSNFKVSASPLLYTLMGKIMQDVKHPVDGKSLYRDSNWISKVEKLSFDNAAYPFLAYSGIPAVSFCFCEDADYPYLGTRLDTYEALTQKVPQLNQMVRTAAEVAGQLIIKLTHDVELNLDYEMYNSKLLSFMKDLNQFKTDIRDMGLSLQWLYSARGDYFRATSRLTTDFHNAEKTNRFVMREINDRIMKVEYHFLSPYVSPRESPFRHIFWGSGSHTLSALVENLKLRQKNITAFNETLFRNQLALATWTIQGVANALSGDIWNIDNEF
Description: Plasma samples serially diluted from a starting dilution of 1/450 or hybridoma supernatants diluted 1/2 were added to the plates (50 μl/well; dilution buffer: PBS with 0.1% BSA and 0.05% TWEEN®-20) and incubated for 2 h at room temperature and then the plates were washed four times. […] After another wash (as above), 50 μl/well TMB substrate (K-Blue® Aqueous, Neogen) was added, and the reaction was stopped after 10-15 min with 50 μl/well of 0.5 M H₂SO₄. The optical density at 450 nm was read using a plate reader (Tecan). The endpoint titers were defined as the dilution above the average of the blank wells (background) plus 3 standard deviations of the blank wells.
In the ELISA experiment, human, mouse or three different chimeric TfR1 receptors were used to coat ELISA plates (FIGS. 30A-30E). The ELISA protocol was slightly modified as follows from the indirect ELISA described in Example 15. […] The coated plates were then blocked. Dilution series of mouse IgG of the analyzed antibodies were prepared in PBS and incubated on the ELISA plates. Unbound antibodies were then washed off before incubating wells with a HRP-conjugated secondary, anti-mouse-IgG for 1 h. Plates were then washed again before addition of HRP substrate TMB for development and detection of antibody binding to the wells. TMB development was stopped by adding 0.5 M H₂SO₄ to the wells and ELISA responses measured as the OD at 450 nm in an ELISA plate reader.

B3: H2L7-K12V/R71A/R83T (antibody, human IgG1, kappa)
heavy: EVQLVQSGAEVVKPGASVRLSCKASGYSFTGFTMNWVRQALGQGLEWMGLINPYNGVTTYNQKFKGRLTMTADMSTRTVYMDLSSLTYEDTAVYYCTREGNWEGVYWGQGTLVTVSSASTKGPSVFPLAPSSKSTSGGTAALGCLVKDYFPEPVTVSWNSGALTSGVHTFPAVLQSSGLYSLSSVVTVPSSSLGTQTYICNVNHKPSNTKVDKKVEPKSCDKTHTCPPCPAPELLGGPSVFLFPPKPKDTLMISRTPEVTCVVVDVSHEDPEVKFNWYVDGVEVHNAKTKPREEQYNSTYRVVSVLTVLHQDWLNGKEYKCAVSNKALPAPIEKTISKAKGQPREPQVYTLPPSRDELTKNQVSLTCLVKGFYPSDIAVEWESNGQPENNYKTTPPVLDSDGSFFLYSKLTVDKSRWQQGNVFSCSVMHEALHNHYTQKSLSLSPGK
light: EIVLTQSPLSLSVTLGQSASISCRSSQSLLDSNGKTYLHWFILRPGQSPRRLIYLVSILDSGVPDRFSGSGSGTDFTLKISRVEAEDVGVYYCVQGTHFPFTFGSGTKLEIKRTVAAPSVFIFPPSDEQLKSGTASVVCLLNNFYPREAKVQWKVDNALQSGNSQESVTEQDSKDSTYSLSSTLTLSKADYEKHKVYACEVTHQGLSSPVTKSFNRGEC
notes: VH variant of H2L7; VL and constant domains identical to H2L7
Kd (AβpE3-40 monomer [5]): 4.04 nM | koff (AβpE3-40 monomer [5]): 0.000234 s⁻¹ | kon (AβpE3-40 monomer [5]): 58700 M⁻¹ s⁻¹ | IC50 (AβpE3-40 monomer [6]): 2.29 nM | IC50 (Aβ1-40 monomer): > 500 nM | IC50 (AβpE3-42 protofibrils [7]): 4.9 nM | IC50 (Aβ1-42 protofibrils): > 132 nM | koff (AβpE3-42 protofibrils [8]): 2.45e-05 s⁻¹ | kon (AβpE3-42 protofibrils [8]): 57600 M⁻¹ s⁻¹ | Kd (AβpE3-42 protofibrils [9]): 0.427 nM

B4: H2L7-R71A (antibody, human IgG1, kappa)
heavy: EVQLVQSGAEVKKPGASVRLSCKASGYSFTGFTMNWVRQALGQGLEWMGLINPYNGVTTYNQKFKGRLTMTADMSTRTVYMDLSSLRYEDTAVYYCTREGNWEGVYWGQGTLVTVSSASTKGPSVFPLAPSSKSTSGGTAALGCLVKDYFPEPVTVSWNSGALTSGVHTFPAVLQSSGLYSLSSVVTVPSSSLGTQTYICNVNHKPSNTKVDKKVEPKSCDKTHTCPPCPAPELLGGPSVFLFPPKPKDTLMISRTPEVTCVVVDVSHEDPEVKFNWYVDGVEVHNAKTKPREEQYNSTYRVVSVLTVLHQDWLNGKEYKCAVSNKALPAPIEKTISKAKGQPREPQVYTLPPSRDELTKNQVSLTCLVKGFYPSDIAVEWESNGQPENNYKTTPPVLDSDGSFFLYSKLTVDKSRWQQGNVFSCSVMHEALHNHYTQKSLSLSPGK
light: B3 light
notes: as for B3
Kd (AβpE3-40 monomer [5]): 4.62 nM | koff (AβpE3-40 monomer [5]): 0.000225 s⁻¹ | kon (AβpE3-40 monomer [5]): 50100 M⁻¹ s⁻¹ | IC50 (AβpE3-40 monomer [6]): 2.54 nM | IC50 (Aβ1-40 monomer): > 500 nM | IC50 (AβpE3-42 protofibrils [7]): 4.59 nM | IC50 (Aβ1-42 protofibrils): > 132 nM | koff (AβpE3-42 protofibrils [8]): 2.54e-05 s⁻¹ | kon (AβpE3-42 protofibrils [8]): 67700 M⁻¹ s⁻¹ | Kd (AβpE3-42 protofibrils [9]): 0.376 nM

B5: H2L7-K12V/R83T (antibody, human IgG1, kappa)
heavy: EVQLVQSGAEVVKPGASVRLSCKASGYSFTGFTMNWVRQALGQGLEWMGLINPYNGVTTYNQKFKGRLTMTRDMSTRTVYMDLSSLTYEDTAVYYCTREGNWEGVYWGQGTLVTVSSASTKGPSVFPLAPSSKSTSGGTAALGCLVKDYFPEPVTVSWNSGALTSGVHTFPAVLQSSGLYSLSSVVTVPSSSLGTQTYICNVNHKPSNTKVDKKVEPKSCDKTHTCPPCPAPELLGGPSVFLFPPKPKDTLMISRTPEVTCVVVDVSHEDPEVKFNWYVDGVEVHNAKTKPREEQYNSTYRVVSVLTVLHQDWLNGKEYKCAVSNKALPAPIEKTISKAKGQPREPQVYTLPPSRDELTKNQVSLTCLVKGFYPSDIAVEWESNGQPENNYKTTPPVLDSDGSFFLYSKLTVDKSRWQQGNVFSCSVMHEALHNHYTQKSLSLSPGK
light: B3 light
notes: as for B3
Kd (AβpE3-40 monomer [5]): 2.2 nM | koff (AβpE3-40 monomer [5]): 0.00012 s⁻¹ | kon (AβpE3-40 monomer [5]): 56200 M⁻¹ s⁻¹ | IC50 (Aβ3-28 monomer): 2260 nM | IC50 (AβpE3-28 monomer): 5 nM | IC50 (AβpE3-40 monomer [6]): 2.27 nM | IC50 (Aβ1-40 monomer): > 500 nM | IC50 (AβpE3-42 protofibrils [7]): 3.71 nM | IC50 (Aβ1-42 protofibrils): > 132 nM | koff (AβpE3-42 protofibrils [8]): 1.62e-05 s⁻¹ | kon (AβpE3-42 protofibrils [8]): 81100 M⁻¹ s⁻¹ | Kd (AβpE3-42 protofibrils [9]): 0.2 nM

Further lines, results first:

Kd (AβpE3-40 monomer [1]): 2.38 nM | koff (AβpE3-40 monomer [1]): 0.000127 s⁻¹ | kon (AβpE3-40 monomer [1]): 53500 M⁻¹ s⁻¹ | Kd [2]: 35.6 nM | koff [2]: 0.0031 s⁻¹ | kon [2]: 87000 M⁻¹ s⁻¹ | IC50 (AβpE3-40 monomer [3]): 0.8 nM | IC50 (AβpE3-42 protofibrils [4]): 3.2 nM
B1: BA002 (bispecific antibody, human IgG1, kappa)
light: B3 light
heavy 1: not shown
heavy 2: EVQLVQSGAEVVKPGASVRLSCKASGYSFTGFTMNWVRQALGQGLEWMGLINPYNGVTTYNQKFKGRLTMTRDMSTRTVYMDLSSLTYEDTAVYYCTREGNWEGVYWGQGTLVTVSSASTKGPSVFPLAPSSKSTSGGTAALGCLVKDYFPEPVTVSWNSGALTSGVHTFPAVLQSSGLYSLSSVVTVPSSSLGTQTYICNVNHKPSNTKVDKKVEPKSCDKTHTCPPCPAPELLGGPSVFLFPPKPKDTLMISRTPEVTCVVVDVSHEDPEVKFNWYVDGVEVHNAKTKPREEQYNSTYRVVSVLTVLHQDWLNGKEYKCAVSNKALPAPIEKTISKAKGQPREPQVYTLPPCRDELTKNQVSLWCLVKGFYPSDIAVEWESNGQPENNYKTTPPVLDSDGSFFLYSKLTVDKSRWQQGNVFSCSVMHEALHNHYTQKSLSLSPGGGGGSGGGGSGGGGSGGGGSDIQMTQSPSSVSASVGDRVTITCKSSQSLLASTNQKNYLAWYQQKPGKAPKLLIYWASTRESGVPSRFSGSGSGTDFTLTISSLQPEDFATYYCQQYFIYPRTFGCGTKVEIKGGGGSGGGGSGGGGSGGGGSEVQLVQSGAEVKKPGSSVKVSCKASGYIFTDYNMDWVRQAPGQCLEWIGDINPDYDTTSYNEKFKGRATLTVDKSTSTAYMELSSLRSEDTAVYYCARGGYSGSSYYHPMDYWGQGTLVTVSS

Kd (AβpE3-40 monomer [5]): 4.72 nM | koff (AβpE3-40 monomer [5]): 0.000235 s⁻¹ | kon (AβpE3-40 monomer [5]): 50900 M⁻¹ s⁻¹ | IC50 (AβpE3-40 monomer [6]): 2.77 nM | IC50 (Aβ1-40 monomer): > 500 nM | IC50 (AβpE3-42 protofibrils [7]): 5.44 nM | IC50 (Aβ1-42 protofibrils): > 132 nM | koff (AβpE3-42 protofibrils [8]): 2.73e-05 s⁻¹ | kon (AβpE3-42 protofibrils [8]): 57400 M⁻¹ s⁻¹ | Kd (AβpE3-42 protofibrils [9]): 0.471 nM
B2: H2L7-R71A/R83T (antibody, human IgG1, kappa)
heavy: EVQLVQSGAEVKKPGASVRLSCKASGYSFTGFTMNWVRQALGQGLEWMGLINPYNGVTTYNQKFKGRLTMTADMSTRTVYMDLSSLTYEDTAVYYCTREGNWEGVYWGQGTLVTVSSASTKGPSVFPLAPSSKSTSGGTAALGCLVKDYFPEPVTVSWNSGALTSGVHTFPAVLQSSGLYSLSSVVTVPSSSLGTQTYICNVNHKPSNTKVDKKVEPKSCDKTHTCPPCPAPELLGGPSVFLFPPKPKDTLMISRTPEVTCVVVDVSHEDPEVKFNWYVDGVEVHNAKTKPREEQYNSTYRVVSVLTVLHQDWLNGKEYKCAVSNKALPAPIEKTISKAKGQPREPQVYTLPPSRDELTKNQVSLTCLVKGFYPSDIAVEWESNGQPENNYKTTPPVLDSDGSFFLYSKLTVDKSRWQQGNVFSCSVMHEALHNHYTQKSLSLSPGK
light: B3 light
notes: as for B3

binding result [10]: no binding (tested: about 600 ng/ml)
B6: 26D3 (antibody, V domains shown)
VH: EVQLQQFGVELVKPGASVKISCKASGYIFTDYNMDWVKQSHGKSLEWIGDINPDYDTTSYNEKFKGKATLTVDKSSSTAYMELRSLTSEDTAVYYCARGGYSGSSYYHPMDYWGQGTSVTVSS
VL: DIVMSQSPSSLAVSVGEKITMSCKSSQSLLYSTNQKNYLAWYQQKPGQSPELLIYWASTRESGVPDRFTGSGSGTDFTLTISNVRAEDLAVYYCQQYFIYPRTFGGGTKLEIK
notes: also called mouse antibody 26D3; clone 26D3
